According to US20060205037A1, “Modified transferrin fusion proteins” (priority 2003, published 2006):

What was measured:
[1] = system: db/db mice; assay: β-cell proliferation (BrdU) and β-cell mass in db/db mice; assay type: in vivo; conditions: 10 mg/kg IP, third day
Description: db/db mice, 6 per time point, received one IP injection of Tf (10 mg/kg) or GLP-1-Tf (10 mg/kg) and were sacrificed 1, 2 and 3 days later for measurement of β-cell proliferation and 3, 5, 8 and 10 days later for measurement of islet mass. Sixty mg/kg 5-bromo-2-deoxyuridine (BrdU, Sigma) was injected IP 6 hours before sacrifice. BrdU is a thymidine analog that is incorporated during S-phase of cell mitosis. Pancreata were removed, fixed overnight in 4% buffered formalin, processed for embedding in paraffin and histological sections (4 μm) mounted on poly-1-lysine-coated glass slides. BrdU was detected with a BrdU antibody (Sigma, 1:500 and also confirmed with Zymed antibody, 1:250) and BrdU staining kit (Zymed Laboratories Inc). Five to six hundred islets from each condition were then visualized and the number of islets that contained BrdU+ cells as well as the percent BrdU+ nuclei per total number of islet cells was quantified. For insulin staining and determination of β-cell mass histological sections were treated with a guinea-pig insulin antibody (Linco). […] The total pancreatic area and β-cell positive area for every image were quantified using MetaMorph 4.6.3 software (Universal Imaging Inc., West Chester).

[2] = system: diabetic db/db mice; assay: overnight fast and IPGTT in diabetic mice after SC administration; assay type: in vivo; conditions: SC at 9 pm, fasted overnight; GLP-1-Tf 1 or 10 mg
Description: A group of diabetic mice were given Tf or GLP-1-Tf via SC administration at 9 pm, fasted overnight and an IPGTT performed the next morning. The fasted Tf-treated animals had lower fasting blood glucose than ad libitum fed animals (238±39 versus 358±23 mg/dl; compare 0 time/fasted animals of FIG. 10c with 0 time/fed animals of FIG. 10a), and additionally, the animals given 1 or […] had lower fasting blood glucose (132±27 mg/dl) than those given Tf alone.

B1: Tf: transferrin with the two N-linked glycosylation sites eliminated, expressed in S. cerevisiae; control protein (protein)
chain: VPDKTVRWCAVSEHEATKCQSFRDHMKSVIPSDGPSVACVKKASYLDCIRAIAANEADAVTLDAGLVYDAYLAPNNLKPVVAEFYGSKEDPQTFYYAVAVVKKDSGFQMNQLRGKKSCHTGLGRSAGWNIPIGLLYCDLPEPRKPLEKAVANFFSGSCAPCADGTDFPQLCQLCPGCGCSTLNQYFGYSGAFKCLKDGAGDVAFVKHSTIFENLANKADRDQYELLCLDNTRKPVDEYKDCHLAQVPSHTVVARSMGGKEDLIWELLNQAQEHFGKDKSKEFQLFSSPHGKDLLFKDSAHGFLKVPPRMDAKMYLGYEYVTAIRNLREGTCPEAPTDECKPVKWCALSHHERLKCDEWSVNSVGKIECVSAETTEDCIAKIMNGEADAMSLDGGFVYIAGKCGLVPVLAENYNKADNCEDTPEAGYFAVAVVKKSASDLTWDNLKGKKSCHTAVGRTAGWNIPMGLLYNKINHCRFDEFFSEGCAPGSKKDSSLCKLCMGSGLNLCEPNNKEGYYGYTGAFRCLVEKGDVAFVKHQTVPQNTGGKNPDPWAKNLNEKDYELLCLDGTRKPVEEYANCHLARAPNHAVVTRKDKEACVHKILRQQQHLFGSNVADCSGNFCLFRSETKDLLFRDDTVCLAKLHDRNTYEKYLGEEYVKAVGNLRKCSTSSLLEACTFRRP
islets with 1 or more BRDU+ nuclei [1]: 35% | fasting blood glucose [2]: 238 ± 39 mg/dL
